Test results: patent US20090035322A1 (Regeneron, published 2009)

Legend:
human CD20 = target: T1, human CD20 (human, UniProt P11836 1-297); test: cell-based or functional assay
T1 sequence: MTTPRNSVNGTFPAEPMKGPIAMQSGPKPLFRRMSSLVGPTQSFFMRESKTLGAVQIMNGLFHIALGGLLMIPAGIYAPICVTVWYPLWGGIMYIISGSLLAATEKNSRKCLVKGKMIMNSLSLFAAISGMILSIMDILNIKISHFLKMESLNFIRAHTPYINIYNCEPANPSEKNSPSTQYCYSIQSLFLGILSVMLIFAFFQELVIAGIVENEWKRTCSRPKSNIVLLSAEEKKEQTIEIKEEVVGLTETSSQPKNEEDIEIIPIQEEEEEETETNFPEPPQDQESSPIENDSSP

[1] = target: T2, mutant human CD20 #2 (N163D) (human, UniProt P11836 1-297); test: FACS, mutant-hCD20 MG87 cells; 100%=best antibody
T2 construct: Stably expressed on MG87 cells
T2 sequence: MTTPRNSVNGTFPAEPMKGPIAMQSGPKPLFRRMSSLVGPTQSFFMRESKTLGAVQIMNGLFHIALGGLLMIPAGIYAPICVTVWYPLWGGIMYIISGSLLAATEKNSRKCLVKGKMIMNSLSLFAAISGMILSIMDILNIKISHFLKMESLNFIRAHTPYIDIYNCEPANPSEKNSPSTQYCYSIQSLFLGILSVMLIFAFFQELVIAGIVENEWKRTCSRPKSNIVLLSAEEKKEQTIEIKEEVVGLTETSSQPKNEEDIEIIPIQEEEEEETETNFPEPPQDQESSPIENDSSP
Protocol: (§1) Briefly, approximately 1×10⁶ cells from each stably transfected cell line expressing a mutant human CD20 were collected and incubated with each anti-human antibody, at 10 μg/ml, on ice for 1 hr, followed by incubation with APC-conjugated goat anti-human IgG (Jackson Immunolabs), at 10 μg/ml, on ice for 45 min. For each antibody, binding to each mutant human CD20 was assessed by flow cytometry.

[2] = target: T3, mutant human CD20 #3 (A170S, P172S) (human, UniProt P11836 1-297); test: FACS, mutant-hCD20 MG87 cells; 100%=best antibody
T3 construct: Stably expressed on MG87 cells
T3 chain: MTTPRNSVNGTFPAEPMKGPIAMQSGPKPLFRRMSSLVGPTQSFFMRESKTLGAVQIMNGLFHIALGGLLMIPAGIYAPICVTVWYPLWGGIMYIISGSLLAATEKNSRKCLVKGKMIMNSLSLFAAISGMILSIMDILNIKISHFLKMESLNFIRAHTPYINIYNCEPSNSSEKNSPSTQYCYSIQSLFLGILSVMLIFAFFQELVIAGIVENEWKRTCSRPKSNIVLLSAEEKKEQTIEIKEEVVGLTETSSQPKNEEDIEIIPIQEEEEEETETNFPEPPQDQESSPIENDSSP
Protocol: as §1

[3] = target: T4, mutant human CD20 #4 (N166D) (human, UniProt P11836 1-297); test: FACS, mutant-hCD20 MG87 cells; 100%=best antibody
T4 construct: Stably expressed on MG87 cells
T4 sequence: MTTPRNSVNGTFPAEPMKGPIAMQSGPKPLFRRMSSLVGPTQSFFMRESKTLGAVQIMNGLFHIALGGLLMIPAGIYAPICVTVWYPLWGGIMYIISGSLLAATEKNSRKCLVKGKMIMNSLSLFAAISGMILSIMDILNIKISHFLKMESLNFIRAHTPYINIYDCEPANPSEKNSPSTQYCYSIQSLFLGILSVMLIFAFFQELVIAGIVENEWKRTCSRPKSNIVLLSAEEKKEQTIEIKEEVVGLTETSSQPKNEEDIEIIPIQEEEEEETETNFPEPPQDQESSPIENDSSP
Protocol: as §1

[4] = target: T5, mutant human CD20 #5 (P172S) (human, UniProt P11836 1-297); test: FACS, mutant-hCD20 MG87 cells; 100%=best antibody
T5 construct: Stably expressed on MG87 cells
T5 sequence: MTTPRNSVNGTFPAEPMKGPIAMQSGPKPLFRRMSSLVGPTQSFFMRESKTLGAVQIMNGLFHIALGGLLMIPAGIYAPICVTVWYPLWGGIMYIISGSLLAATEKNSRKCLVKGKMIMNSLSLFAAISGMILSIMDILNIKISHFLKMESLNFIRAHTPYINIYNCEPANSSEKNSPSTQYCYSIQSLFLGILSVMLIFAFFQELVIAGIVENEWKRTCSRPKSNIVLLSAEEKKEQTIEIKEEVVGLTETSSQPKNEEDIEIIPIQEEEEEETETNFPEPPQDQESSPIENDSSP
Protocol: as §1

[5] = target: T6, mutant human CD20 #6 (Y77F, N166D) (human, UniProt P11836 1-297); test: FACS, mutant-hCD20 MG87 cells; 100%=best antibody
T6 construct: Stably expressed on MG87 cells
T6 chain: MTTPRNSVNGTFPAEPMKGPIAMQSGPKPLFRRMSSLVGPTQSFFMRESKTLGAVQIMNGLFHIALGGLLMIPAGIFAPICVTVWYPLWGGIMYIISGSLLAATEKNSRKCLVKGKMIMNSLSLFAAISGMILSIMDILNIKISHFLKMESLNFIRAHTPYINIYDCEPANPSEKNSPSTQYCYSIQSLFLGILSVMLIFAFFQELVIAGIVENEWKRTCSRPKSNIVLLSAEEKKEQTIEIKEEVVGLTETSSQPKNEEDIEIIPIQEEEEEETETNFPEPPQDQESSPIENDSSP
Protocol: as §1

[6] = target: T7, mutant human CD20 #10 (A157V) (human, UniProt P11836 1-297); test: FACS, mutant-hCD20 MG87 cells; 100%=best antibody
T7 construct: Stably expressed on MG87 cells
T7 sequence: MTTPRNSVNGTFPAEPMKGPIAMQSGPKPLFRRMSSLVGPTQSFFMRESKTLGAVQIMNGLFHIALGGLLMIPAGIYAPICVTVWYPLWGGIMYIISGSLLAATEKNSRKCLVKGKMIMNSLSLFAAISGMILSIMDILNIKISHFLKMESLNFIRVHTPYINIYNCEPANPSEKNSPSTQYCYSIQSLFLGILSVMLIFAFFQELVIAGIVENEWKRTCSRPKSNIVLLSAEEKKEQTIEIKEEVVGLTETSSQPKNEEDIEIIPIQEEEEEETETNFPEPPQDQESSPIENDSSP
Protocol: as §1

Row | Binder | ADCC EC50 (pM), Daudi + PBMC (human CD20) | Percent of Binding to Mutant Human CD20 [1] | Percent of Binding to Mutant Human CD20 [2] | Percent of Binding to Mutant Human CD20 [3] | Percent of Binding to Mutant Human CD20 [4] | Percent of Binding to Mutant Human CD20 [5] | Percent of Binding to Mutant Human CD20 [6]
1 | 10F2-13 (antibody, V domains shown, Fully human IgG, constant region not specified; also called 10F2-13N; ab 10F2-13) VH: EEQLVESGGDLVQPGRSLRLSCAASGFTFHDYTMHWVRQAPGKGLEWVSGISWNSGSLGYADSVKGRFTISRDNAKKSLYLQMNSLRAEDTALYYCAKDPSYGSGSYHSYYGMDVWGQGTTVTVSS VL: EIVLTQSPATLSLSPGERATLSCWASQSISRYLVWYQQKCGQAPRLLIYEASKRATGIPVRFSGSGSGTDFTLTISSLESEDFAVYYCQQRFNWPLTFGGGTKVEIK | 6.68 pM | 54% | 55% | 60% | 69% | 1% | 87%
2 | 7E1-13 (antibody, V domains shown, Fully human IgG, constant region not specified; also called 7E1-13N) VH: EVQLVESGGGLVQPGRSLRLSCTASGFTFGDFPMHWVRQAPGKGLEWVSGITWNSGSIVYADSVKGRFTISRDNAKNSLYLQMNSLRTEDTALYYCAKDSHYGSGNFYYYYYGMDVWGQGTTVTVSS VL: not shown | 2.14 pM | 49% | 95% | 84% | 85% | 1% | 92%
3 | 9D4-7 (antibody, V domains shown, Fully human IgG, constant region not specified; also called 9D4-7N) VH: EVQLVESGGGLVQPGRSLRLSCAASGFTFYDYAMHWVRQAPGKGLEWVSGISWNSDTIGYADSVKGRFTISRDNAKNSLYLQMNSLRAEDTALYYCTKDGSYGHFYSGLDVWGQGTTVTVSS VL: EIVLTQSPATLSLSPGERATLSCRASQSVSSYLAWYQQKPGQAPRLLIYVASNRATGIPARFSGSGSGTDFTLTISSLEPDDFAVYYCQQRYYWPLTFGGGTKVEIK | 1.53 pM | 2% | 70% | 5% | 66% | 0% | 75%
4 | 8G6-5 (antibody, V domains shown, Fully human IgG, constant region not specified; also called 8G6-5N) VH: EVQLAESGGDLVQSGRSLRLSCAASGITFHDYAMHWVRQPPGKGLEWVSGISWNSDYIGYADSVKGRFTISRDNAKKSLYLQMNSLRPDDTALYYCVKDFHYGSGSNYGMDVWGQGTTVTVSP VL: EIVMTQSPATLSMSPGERATLSCRASQSVSRNLAWYQQKVGQAPRLLISGASTRATGIPARFSGSGSGTEFTLTINSLQSEDFAVYYCQQSNDWPLTFGQGTRLEIK | 14.8 pM | 45% | 65% | 70% | 76% | 5% | 96%
5 | 3B9-10 (antibody, V domains shown, Fully human IgG, constant region not specified; also called 3B9-10N) VH: EVQLVESGGGLVQPGRSLRLSCVASGFTFNDYAMHWVRQAPGKGLEWVSVISWNSDSIGYADSVKGRFTISRDNAKNSLYLQMHSLRAEDTALYYCAKDNHYGSGSYYYYQYGMDVWGQGTTVTVSS VL: EIVMTQSPATLSVSPGERATLSCRASQSVSSNLAWYQQKPGQAPRLLIYGTSTRATGIPARFSGSGSGTEFTLTISSLQSEDFAVYYCQQYNNWPLTFGGGTKVEIK | 6.77 pM | 6% | 67% | 40% | 72% | 1% | 79%
6 | 6F6-1 (antibody, V domains shown, Fully human IgG, constant region not specified; also called 6F6-1N) VH: AVQLVESGGGLVQPGRSLRLSCAASGFTFRDYAMHWVRQGPGKGLEWVSGISWNTDYIGYADSVKGRFTISRDNAKNSLYLQMNSLRPEDTALYYCAKDARYGRDNYYGMDVWGQGTTVTVSS VL: EIVMTQSPATLSVSPGERATLSCRASQSVSHNLAWYQQKPGQAPRLLIYGAYTRATGIPDRFSGTGSGTEFTLTISSLQSEDFAVFYCQQYNNWPLTFGGGTKVEIK | 5.15 pM | 74% | 100% | 85% | 100% | 16% | 98%
7 | 9C3-8 (antibody, V domains shown, Fully human IgG, constant region not specified; also called 9C3-8N) VH: EVQLVESGGGLVQPGRSLRLSCAASGFSFHDYAMHWVRQAPGKGLEWVSGISWNSDSLGYADSVKGRFTISRDNAKNSLYLQMNSLRAEDTALYYCAKDNHYGSGSHYYYKYGMDVWGQGTTVTVSS VL: not shown | 11 pM | 0% | 84% | 22% | 76% | 0% | 77%
8 | 9E4-20 (antibody, V domains shown, Fully human IgG, constant region not specified; also called 9E4-20N) VH: EVQLVESGGGLVQPGRSLRLSCAASGFTFYDYAMHWVRQAPGKGLEWVSGISWNSDYIGYADSVKGRFTISRDNAKNSLYLQMNSLRAEDTALYYCAKDARYGRNNYYGMDVWGPGTTVTVSS VL: not shown | 2.37 pM | 0% | 57% | 8% | 57% | 1% | 76%
9 | 2C11-4 (antibody, V domains shown, Fully human IgG, constant region not specified; also called 2C11-4N) VH: EVQLVESGGGLVQPGRSLRLSCAASGFTFRDYAMHWVRQGPGKGLEWVSGISWNTDYIGYADSVKGRFTISRDNAKNSLYLQMNSLRPEDTALYYCAKDARYGRDNYYGMDVWGQGTTVTVSS VL: EIVLTQSPATLSLSPGERATLSCRASQSVSRYLAWYQQKPGQAPRLLIHDASNRATGIPARFSGSGSGTDFTLTITSLEPEDFVVYYCQQRSDWPITFGQGTRLEIK | 1.45 pM | 0% | 11% | 31% | 30% | 1% | 68%
